Assay results published in paper doi:10.1101/2025.06.28.662095, “Mechanistic insights into the allosteric regulation of cell wall hydrolase RipA in Mycobacterium tuberculosis” (bioRxiv, 2025).

Molecular target: T1, MtRipACAT (catalytic domain of M. tuberculosis RipA, residues 261-472) (Mycobacterium tuberculosis, UniProt O53168 261-472)
T1 construct: also called MtRipA catalytic domain; NlpC/P60 catalytic domain; not shown: 6xHis-SUMO, N-terminal, cleaved
T1 sequence: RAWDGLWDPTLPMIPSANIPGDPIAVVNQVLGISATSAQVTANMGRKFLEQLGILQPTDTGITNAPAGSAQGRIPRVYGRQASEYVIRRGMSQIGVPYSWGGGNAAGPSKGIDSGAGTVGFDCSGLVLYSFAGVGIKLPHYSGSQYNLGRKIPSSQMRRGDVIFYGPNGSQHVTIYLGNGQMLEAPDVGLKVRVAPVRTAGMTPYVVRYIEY
Assay: BLI; biotinylated MtRipACC immobilised on streptavidin biosensors; 25°C; 25 mM HEPES pH 7.5, 150 mM NaCl, 5% glycerol, BSA 1 mg/mL, 0.05% Tween 20; steady-state signal versus concentration, one-site binding model; apparent Kd
Settings: both partners purified

B1: MtRipACC (coiled-coil domain of M. tuberculosis RipA, residues 40-240) (domain or fragment)
chain: DPQTDTIAALIADVAKANQRLQDLSDEVQAEQESVNKAMVDVETARDNAAAAEDDLEVSQRAVKDANAAIAAAQHRFDTFAAATYMNGPSVSYLSASSPDEIIATVTAAKTLSASSQAVMANLQRARTERVNTESAARLAKQKADKAAADAKASQDAAVAALTETRRKFDEQREEVQRLAAERDAAQARLQAARLVAWSSE
modifications: biotinylated with EZ-Link NHS-PEG4-Biotin (20 molar excess) for the BLI assays
notes: also called RipA coiled-coil (CC) domain; MtRipA CC domain; not shown: 6xHis-SUMO, N-terminal, cleaved
Kd: 6.8 ± 1.4 µM
